Measured values published in paper PMC9253517 (The Journal of Experimental Medicine, 2022).

B1: JR060 (antibody, V domains shown)
VH: QVQLVQSGAEVKKPGASVRVSCKASGYTFNNYGIIWVRQAPGQGLEWVGWISAYNANTNYAQKLQGRVSMTTDTPTSTVYMELRSLRSDDTAVYYCASGLGAAGTEPPSDYWGQGTLVTVSS
VL: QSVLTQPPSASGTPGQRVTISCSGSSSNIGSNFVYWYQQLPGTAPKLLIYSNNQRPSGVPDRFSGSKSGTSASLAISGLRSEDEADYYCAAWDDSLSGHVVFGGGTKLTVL
B2: JR150 (antibody, V domains shown)
VH: QVQLVQSGAEVKKPGASVKVSCKASRYTFASYYMHWVRQAPGQGLEWMGIINPGGGSTSYAQNFQGRVSMTSDTSTSTVYMELRSLRSEDTAVYYCARDSEFVPTAHGAFEIWGQGTMVTVSS
VL: EIVLTQSPATLSLSPGERATLSCRASQSVSSYLAWYQQKPGQAPRLLIYDASNRATGIPARFSGSGSGTDFTLTISSLEPEDFAVYYCQQRSNWLVTFGGGTKVEIK
B3: JR077 (antibody, V domains shown)
VH: EVQLVESGGGLVQPGGSLRLSCAASGFTFSDYDMHWVRQVTGKGLEWVSAVGTRGDTYYAASVKGRFTISRENAKNSLYLQMNSLRAGDTAVYYCARVGYDSTGFYYYFDYWGQGTLVTVSS
VL: DIQLTQSPSSLSASVGDRVTITCRASQRIGRFLNWYQQKPGKAPKLLIYIVSSLQSGVPSRFSGSGSGTDFTLTINSLQPEDFATYYCQQTYNMPPITFGQGTRLEIK
B4: JR195 (antibody, V domains shown)
VH: EVQLVESGGGLVQPGRSLRLSCAASGFTFDDYTMHWVRQAPGKGLEWVSAISWNSDALGYADSVKGRFTISRDNAKNSLYLQMNSLRPEDTALYYCAKDIDFGGSGSFDVFHIWGHGTMVTVS
VL: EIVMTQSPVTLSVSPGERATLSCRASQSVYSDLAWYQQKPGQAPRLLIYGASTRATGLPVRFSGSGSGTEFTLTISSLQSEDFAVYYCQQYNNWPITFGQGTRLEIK
B5: JR052 (antibody, V domains shown)
VH: QVQLVQSGAEVKKPGASVKVSCEASGYTFTTYHMHWVRQAPGQGLEWMGIINPSRGSANYAQKFQGRVTMTRDTSTRTVYMELSSLRSEDTALYYCARDPNYYDSSGHKIEYFQHWGQGTLVTVSS
VL: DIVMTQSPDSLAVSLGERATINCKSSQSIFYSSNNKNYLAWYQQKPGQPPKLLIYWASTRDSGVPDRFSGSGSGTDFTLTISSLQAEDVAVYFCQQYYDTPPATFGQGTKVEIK
B6: JR068 (antibody, V domains shown)
VH: QVQLQESGPGLVKPSQTLSLTCTVFGGSIRSGDYYWSWIRQPPGKGLEWMGYIYSSGSAYYNPSLESRVTISIDASKNQFSLKVNSVTAADTAVYYCARDGFWFGFGSFDIWGLGTMVTVSS
VL: EIVMTQSPATLSVSPGERAALSCRASQSVSSNLAWYQQRVGQAPRLLIYGASTRATGIPARFSGSGSGTEFTLTISSLQSEDFAVYYCQQYNNWPPLTFGGGTKVEIK
B7: JR204 (antibody, V domains shown)
VH: QVQLQESDPGLVTPSETLSLTCTVSGASVSSGSDYWNWIRQPPGKGLEWIGYIYYTGRTNYNPSLKSRVTISVDTSKNQFSLKLSSVTAADTAVYYCAREVIVLPAALPPFGLDVWGQGTTVTVSS
VL: SYELTQPPSVSVAPGKTARITCGGNNIGTKSVHWYQQKPGQAPVLVVYDDSDRPSGIPERFSGSNSENTATLTISRVEAGDEADYSCQVWDSSGDHVVFGGGTKLTVL
B8: JR206 (antibody, V domains shown)
VH: EVQLVQSGAEVKKPGESLKISCKGSGFNFSRYWIGWVRQMPGKGLEWMGIIYLGDSDTTYSPSFQGQVTISADKSISTAYLQWSSLKASDTAMFYCATRSGYFYGYETWGQGTLVTVSS
VL: SYELTQPPSVSVAPGKTAKITCGGNNIGSKTVHWYQQRPGQAPVLVVYDNRDRPSGIPERFSGSNSGNTAALTISRVEAGDEADYYCQVWDSSSDHYVFGTGTKVTVL
B9: JR209 (antibody, V domains shown)
VH: EVQLLESGGGLVQPGQSLRLYCAASGFTFSSHGMSWVRQAPGKGLEWVSSISSSGGRTYDADSVKGRFTISRDNSENTVYLQMNSLRVADTAVYYCVKENGPHRWSGEVHGMDVWGQGTTVTVSS
VL: QSVLTQPPSVSGAPGQRVTISCTGSSSNIGTGYDVHWYQHLPGTAPKLLIYDNNNRPSGVPDRFSGSKSATSASLAITGLQAEDEGDYYCQSYDTSLSGLAFGGGTKLTVL
B10: JR069 (antibody, V domains shown)
VH: EVQLVESGGGLVQPGGSLRLSCAASGFSFSNYDMLWLRQITGRGLEWVSLIGTSGDTYYSDSVKGRFTISRENGKNSLYLQMNRLRAGDTAVYYCARGNFDTSGFYSYFDTWGQGTLVTVSS
VL: DIQLTQSPSYLSASVGDRVTITCRASQTIKNYLNWYQQKPGKAPKLLIYAVSTLQNGVSSRFRGSGSGTDFTLTISSLQPEDFATYYCQQSYTIPPYTFGQGTKLEIK
B11: JR050 (antibody, V domains shown)
VH: QVQLVQSGAEVKKPGASVKVSCKTSGDTFTNHYMHWVRQAPGQGLEWMGIINPSAGSTSYAQKFQGRVTMTRDTSTSTVYMELSSLRSEDTAVYYCARDIVFIPALDAFDIWGQGTMVTVSS
VL: EIVLTQSPATLSLSPGERATLSCRASQSVSSYLAWYQQKPGQAPRLLIYDTSNRATGIPARFSGSGSGTDFTLTISSLEPEDFAVYYCQQRRNWPPMYTFGQGTKLEIK
B12: JR317 (antibody, V domains shown)
VH: QVQLVESGGGVVQPGKSLRLSCAASGFTFSSYGMHWVRQAPGKGLEWVAVIWYDGSNKYYADSVKGRFTISRDNSKSTLYVQMNSLRAEDTAVYYCARVRTIFRPLDYMDVWGKGTTVTVSS
VL: SYELTQPPSVSVAPGQTARITCGGNNIGSKSVHWYQQKPGQAPVLVVYDDSARPSGIPERFSGSNSGNAATLTISRVEAGDEADYYCQVWDRDYSSDHLWVFGGGTKLTVL
B13: JR065 (antibody, V domains shown)
VH: VQLVESGGGVAQPGRSLRLSCAASGFTFSHYGMHWVRQGPGKGLEWVAGISFDGSDKYYADSVKGRFTISRDNSKNTFYLQMNSLRTDDTAVFYCAKQGFGYGSGWYYFDYWGQGTLVTVSS
VL: IRMTQSPSSLSASVGDRVTITCQASQDISKYLNWYQQRPGKAPKPLIYDASNLETGVPSRFSGSGSGTDFTLTITNLQPEDIATYYCQQYDNVPSVTFGQGTRLEIK
B14: JR072 (antibody, V domains shown)
VH: VQLVESGGGVVQPGRSLRLSCAASGFTFSTYGMHWVRQAPGKGLEWVAGISYDGSDKYYGDSVRGRFTVSRDNSKNTLYLQMNSLRAEDTAVYYCAKGQGPYCSAGNCYTHYFDYWGQGTLVTVSS
VL: EIVLTQSPATLSLSPGERATLSCRASQSVGNYLAWYQQKPGQAPRLLIDDASNRAAGTPARFSGSGSGTDFTLTISSLEPEDFAVYYCQQRSNWPPITFGQGTRLEIK
B15: JR099 (antibody, V domains shown)
VH: EVQLVESGGGLVQPGGSLRLSCAASGFTFSDYDMHWVRQVRGKGLEWLSIIGTAGDTYYPDSVKGRFTISRENAKNSLYLQMNSLRVGDTGVYYCARDRASTSGTDGMDVWGQGTTVTVSS
VL: DIQLTQSPSSLSASVGDRVTITCRASQSISRYLNWYQQRPGKAPKLLIYAAFTLESGVPSRFSGSGSGTDFTLTISSLQAEDFATYHCQQSYSTSALTFGGGTKVEIK
B16: JR054 (antibody, V domains shown)
VH: QLQLQESGPRLMKPSETLSLTCSVSGGSISRSHYYWGWIRQPPGKGLEWIGSIYYNGSTYYNPSLRSRVTISVDTTKNQFSLKLSSVTAADTAEYYCARPGPSYYDRSGYNRAEYFQHWGQGTLVTVSS
VL: IRMTQSPSSLSASVGDRVTITCQASQDISNYLNWYQQKPGKAPKLLIYDASNLETGVPPRFSGSGSGTDFTFTISSLQPEDFATYSCQQYDNLPLTFGGGTKVEIK
B17: JR053 (antibody, V domains shown)
VH: QVQLVQSGAEVKKPGASVKVSCKASGYTFTSHYMHWVRQAPGQGLEWMGIINPSGGSTSHAQKFQGRVTLTSDTSTSTVYMELSSLRSEDTAVYYCARDLSFIPSIAWNCGYWGQGTLVTVSS
VL: QSALTQPASVSGSPGQSITISCTGTSSDVGGYNYVSWYQQHPGKAPKLMIYDVSDRPSGVSNRFSGSKSGNTASLTISGLQAEDEADYYCSSYTSSSSYVFGTGTKVTVL
B18: JR078 (antibody, V domains shown)
VH: VQLVESGGGVVQPGRSLRLSCAASGFIFRSYGMNWVRQAPGKGLEWVAVMSYDGNDKDYADSVKGRFTISRDDSKNTLYLQMNSLRAEDTAVYYCAKSGGLYCSGGNCYSNYFDYWGRGTLVTVSS
VL: EIVLTQSPGTLSLSPGERATLSCRASQSVSSSYLAWYQQKPGQAPRLLISGASSRAAGIPDRFSGSGSGTDFTLTISRLAPEDFAVYYCQQYGYSLTFGGGTKVEIK
B19: JR186 (antibody, V domains shown)
VH: EVQLLESGGGLIPPGGSLRLSCAASGFTFSSYAMSWVRQAPGKGLEWVSGISGSGTDTDEGDSVKGRFTISRDNSKNTLWLQIHTLRVEDTAIYYCAKASRGYVSNFDYFDRWGQGTLVTVSS
VL: SYELTQPPSVSVAPGETAKITCGGDNIGTKSVHWYLQKAGQAPVLVISDDSNRPSGIPERFSGSNSGNTATLTINRVEGGDEADYYCQVWTSFGAGTRVTVI
B20: JR154 (antibody, V domains shown)
VH: EVQLVESGGGLVQPGRSLRLSCEASGFIFDDYAMHWVRQGPGKGLEWVSGITSNSGSMGYADSVKGRFTISRDNAKNSLYLQMNSLRPEDTAFYYCAKDMVSGVFLWFGELENWGQGTLVTVS
VL: QSVLTQPPSASGTPGQRVTISCYGSRSNFGTNTVNWYQQLPGMAPRLLIHSHNQRPSGVPARFSGSKSGTSASLAISGLQSEDEAHYYCASWDGGLNAVVFGGGTKLIVL
B21: JR312 (antibody, V domains shown)
VH: QVQLVQSGAEVKKPGSSVKVSCKASGAKPSGVSFSSYAFNWVRRAPGQGLEWVGGIIPIFGPANYAQKFQGRVTITADESTSTAYMELSSLSSEDTAIYYCARERYCNSPDCYSWERGDFDVWGQGTMVTVSS
VL: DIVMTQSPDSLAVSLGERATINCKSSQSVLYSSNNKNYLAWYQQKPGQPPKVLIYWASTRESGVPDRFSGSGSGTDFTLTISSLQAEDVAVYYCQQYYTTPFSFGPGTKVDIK

Key:
[1] = molecular target: T1, SARS-CoV-2 Wuhan-Hu-1 RBD (SARS-CoV-2, Wuhan-Hu-1 (GenBank …, UniProt P0DTC2)); assay: BLI; conditions: both partners purified
[2] = molecular target: T1, SARS-CoV-2 Wuhan-Hu-1 RBD; assay: cell-based or functional assay

Row | Binder | binding result [1] | neutralisation IC50, Wuhan-Hu-1 pseudovirus [2]
1 | B1 | binds | > 1000 ng/mL
2 | B2 | binds | > 1000 ng/mL
3 | B3 | binds | > 1000 ng/mL
4 | B4 | binds | > 1000 ng/mL
5 | B5 | binds | 23.9 ng/mL
6 | B6 | binds | > 1000 ng/mL
7 | B7 | binds | > 1000 ng/mL
8 | B8 | binds | 137 ng/mL
9 | B9 | binds | 90.1 ng/mL
10 | B10 | binds | > 1000 ng/mL
11 | B11 | binds | > 1000 ng/mL
12 | B12 | binds | 34.4 ng/mL
13 | B13 | binds | > 1000 ng/mL
14 | B14 | binds | > 1000 ng/mL
15 | B15 | binds | 46.3 ng/mL
16 | B16 | binds | 51.3 ng/mL
17 | B17 | binds | > 1000 ng/mL
18 | B18 | binds | > 1000 ng/mL
19 | B19 | binds | 74.2 ng/mL
20 | B20 | binds | > 1000 ng/mL
21 | B21 | binds | 27.1 ng/mL
